In the supplement of paper PMC12855868:

B1: library; numbered along this chain (parent)
chain: MAAAGGARLLRAASAVLGGPAGRWLHHAGSRAGSSGLLRNRGPGGSAEASRSLSVSARARSSSEDKITVHFINRDGETLTTKGKVGDSLLDVVVENNLDIDGFGACEGTLACSTCHLIFEDHIYEKLDAITDEENDMLDLAYGLTDRSRLGCQICLTKSMDNMTVRVPETVADARQSIDVGKTS

Variants of: B1
Assay: scaled log2 fold change in cell abundance, elesclomol vs control (0 = silent mean, 1 = nonsense mean) (scaled log2 ratio); higher = higher viability under elesclomol (loss of FDX1 cuproptosis function)
Details: glucose 10 mM
[1] = with ABC1 FDX1 KO, elesclomol 5 nM, 14 days
[2] = with HEK293T FDX1 KO, elesclomol 40 nM, 11 days
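Note: variant abundance is its share of total variant reads in each endpoint sample, from next-generation sequencing of the integrated ORF PCR-amplified out of genomic DNA.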

Row | Variant | scaled log2 fold change [1] | scaled log2 fold change [2]
1 | L25A | -0.505 | 
2 | I130H | 0.0428 | 0.239
3 | I67V | -0.37 | 0.832
4 | H122D | -0.343 | 
5 | A3Q | 0.292 | -0.249
6 | E77R | -0.178 | -0.307
7 | E77V | -0.145 | -0.226
8 | E77A | 0.306 | 1.06
9 | D101H | -0.018 | -0.455
10 | D101R | 0.0225 | -0.328
11 | D101W | 0.326 | -0.257
12 | S35N | 0.181 | -0.653
13 | W24E | 0.458 | -0.438
14 | F103D | 1.07 | 0.779
15 | F103I | 0.186 | 0.171
16 | T164W | -0.403 | -0.13
17 | E133I | 0.458 | -0.339
18 | R60N | -0.096 | 0.128
19 | R60G | -0.278 | -0.224
20 | R60E | -0.329 | 0.272
21 | G18K | 0.322 | 0.179
22 | G18T | 0.225 | 0.0755
23 | D146F | -0.0311 | 0.866
24 | D146M | -0.332 | 
25 | S159I | -0.459 | 0.0583

Row | Variant | scaled log2 fold change [1] | scaled log2 fold change [2]
26 | S159Q | -0.52 | 
27 | G181C | -0.0449 | -0.501
28 | G181L | 0.185 | 
29 | A4T | 0.364 | 0.164
30 | A4C | 0.0627 | -1.09
31 | A4R | -0.535 | -1.29
32 | T80Q | -0.0848 | 0.379
33 | G143C | -0.043 | 0.0676
34 | G143H | -0.162 | -0.302
35 | G143Y | 0.0128 | 0.695
36 | Y142A | -0.39 | 
37 | Y142W | -0.245 | 0.733
38 | S34N | 0.0794 | 0.424
39 | V85G | 0.265 | 0.288
40 | S62Y | -0.427 | 
41 | S62R | -0.893 | 0.128
42 | S62N | 0.0847 | -0.479
43 | S62E | 0.0386 | 
44 | P168M | 0.157 | -0.366
45 | A32W | -0.684 | 
46 | A32D | 0.119 | 
47 | L144D | 0.171 | -0.877
48 | L144Y | -1.21 | -0.239
49 | V16M | 0.215 | 0.406
50 | V16Q | 0.575 | 

Row | Variant | scaled log2 fold change [1] | scaled log2 fold change [2]
51 | P43M | 0.182 | 0.0394
52 | T145I | 0.244 | -0.228
53 | T145G | 0.132 | 1.06
54 | T145R | 0.0604 | -0.726
55 | T145N | 0.291 | -0.855
56 | I123S | 0.133 | 0.206
57 | G151R | 1.11 | 0.946
58 | K84G | -0.452 | -0.00112
59 | K84F | 0.195 | 0.127
60 | E125N | -0.0561 | -0.574
61 | E125H | -0.583 | -0.234
62 | N96R | 0.204 | -0.0627
63 | L37R | -0.0271 | 0.0954
64 | V92R | 1.1 | 0.379
65 | V92T | -0.145 | 
66 | G22H | 0.331 | 0.022
67 | I154G | 1.1 | 1.27
68 | R41G | -0.751 | 0.252
69 | R41D | 0.137 | -0.209
70 | S30C | 0.348 | -0.559
71 | V94S | -0.223 | -1
72 | K82P | -0.285 | -0.31
73 | R11M | -0.24 | 0.88
74 | H70R | -0.349 | -0.0802
75 | H70P | 0.933 | 0.983

Row | Variant | scaled log2 fold change [1] | scaled log2 fold change [2]
76 | G29T | -0.284 | -0.357
77 | G29W | 0.42 | 0.76
78 | G29S | 0.00542 | -0.441
79 | S88V | -0.223 | 0.0665
80 | S88T | -0.996 | -0.234
81 | G44H | -0.319 | 
82 | A28R | 0.246 | 2.14
83 | A28H | -0.736 | -0.127
84 | K126P | 0.252 | 0.147
85 | K126S | -0.46 | -0.133
86 | E120I | -0.276 | 0.524
87 | E120M | -0.223 | 0.0763
88 | D173M | -0.417 | 0.0547
89 | D173S | 0.248 | -0.827
90 | S61F | -0.102 | 
91 | S61M | 0.184 | 
92 | S61V | 0.78 | 
93 | A174S | -0.111 | -0.662
94 | S63W | 0.527 | 0.0977
95 | S63V | 0.189 | 0.0727
96 | R74Q | 0.323 | -0.599
97 | T157F | 0.0938 | 0.986
98 | T157S | 0.365 | 0.742
99 | A172F | -0.0712 | 0.241
100 | L90W | -0.148 | 0.134

Row | Variant | scaled log2 fold change [1] | scaled log2 fold change [2]
101 | L90D | 0.478 | 0.245
102 | L90H | -0.379 | 1.81
103 | H116Q | -0.185 | 0.198
104 | A47N | 0.833 | 1.56
105 | L53P | 0.118 | 
106 | R8L | -0.0928 | -0.46
107 | R149E | 1.13 | 1.11
108 | R149N | 1 | 1.05
109 | I118P | 1.16 | 0.991
110 | I118Q | 0.0897 | 0.252
111 | I100D | 0.409 | -0.663
112 | I100F | -0.0589 | -0.586
113 | G6F | 0.153 | -0.294
114 | G6V | -0.0163 | 0.974
115 | M137G | -0.0982 | -0.171
116 | M137I | 0.0941 | 0.499
117 | S14G | 0.603 | 
118 | C152W | 1.13 | 1.28
119 | C152P | 1.08 | 1.13
120 | C152N | 1 | 2.21
121 | G36M | 0.149 | -0.00494
